IntAct's records for PubMed 22078559

B1: Double-strand break repair protein MRE11 (Homo sapiens), P49959 (parent)
chain: MSTADALDDENTFKILVATDIHLGFMEKDAVRGNDTFVTLDEILRLAQENEVDFILLGGDLFHENKPSRKTLHTCLELLRKYCMGDRPVQFEILSDQSVNFGFSKFPWVNYQDGNLNISIPVFSIHGNHDDPTGADALCALDILSCAGFVNHFGRSMSVEKIDISPVLLQKGSTKIALYGLGSIPDERLYRMFVNKKVTMLRPKEDENSWFNLFVIHQNRSKHGSTNFIPEQFLDDFIDLVIWGHEHECKIAPTKNEQQLFYISQPGSSVVTSLSPGEAVKKHVGLLRIKGRKMNMHKIPLHTVRQFFMEDIVLANHPDIFNPDNPKVTQAIQSFCLEKIEEMLENAERERLGNSHQPEKPLVRLRVDYSGGFEPFSVLRFSQKFVDRVANPKDIIHFFRHREQKEKTGEEINFGKLITKPSEGTTLRVEDLVKQYFQTAEKNVQLSLLTERGMGEAVQEFVDKEEKDAIEELVKYQLEKTQRFLKERHIDALEDKIDEEVRRFRETRQKNTNEEDDEVREAMTRARALRSQSEESASAFSADDLMSIDLAEQMANDSDDSISAATNKGRGRGRGRRGGRGQNSASRGGSQRGRADTGLETSTRSRNSKTAVSASRNMSIIDAFKSTRQQPSRNVTTKNYSEVIEVDESDVEEDIFPTTSKTDQRWSSTSSSKIMSQSQVSKGVDFESSEDDDDDPFMNTSSLRRNRR

Variants of: B1
Conditions: with nbn_human NBN

Row | Variant | effect of a mutation on the interaction
1 | S104C | decreasing interaction
2 | R202G | disrupting interaction
3 | D86L | decreasing interaction
4 | C146A | decreasing interaction
5 | R80A | disrupting interaction
6 | N117L | disrupting interaction
7 | P121G | disrupting interaction
